{"source": "patent US20230272071A1", "about": "(ARIZONA BOARD OF REGENTS ON BEHALF OF THE UNIVERSITY OF …, published 2023)", "binders": {"B1": {"name": "mMHCII-Anti-hCD19 BMiMS (MCC:I-E^k fused to anti-hCD19 AltIg Fv of mAb B43, opened C-C' loop) (other)", "MHC II alpha": "CIKEEHTIIQAEFYLLPDKRGEFMFDFDGDEIFHVDIEKSETIWRLEEFAKFASFEAQGALANIAVDKANLDVMKERSNNTPDANVAPEVTVLSRSPVNLGEPNILICFIDKFSPPVVNVTWLRNGRPVTEGVSETVFLPRDDHLFRKFHYLTFLPSTDDFYDCEVDHWGLEEPLRKHWEFEEKTLLPETKESRGGLEVLFQGPEFGGSTTAPSAQLEKELQALEKENAQLEWELQALEKELAQAAAGQPPKLLIYDASNLVSGIPPRFSGSGSGTDFTLNIHPVEKVDAATYHCQQSTEDPWTFGGGTKLEIKSPGSGGGGSGGGGSGGGGSSGELVLTQSPASLAVSLGQRATISCKASQSVDYDGDSYLNWYQQIGGGGSHHHHHH", "MHC II beta": "CADPSGSANERADLIAYLKQATKEFRSGGGGSLVPRGSGGGGSVDRPWFLEYCKSECHFYNGTQRVRLLVRYFYNLEENLRFDSDVGEFRAVTELGRPDAENWNSQPEFLEQKRAEVDTVCRHNYEIFDNFLVPRRVEPTVTVYPTKTQPLEHHNLLVCSVSDFYPGNIEVRWFRNGKEEKTGIVSTGLVRNGDWTFQTLVMLETVPQSGEVYTCQVEHPSLTDPVTVEWKAQSTSAQNKSRGGLEVLFQGPEFGGSTTAPSAQLKKKLQALKKKNAQLKWKLQALKKKLAQAAAGQGLEWIGQIWPGDGDTNYNGKFKGKATLTADESSSTAYMQLSSLRSEDSAVYSCARRETTTVGRYYYAMDYWGQGTTVTSPGSGGGGSGGGGSGGGGSSGQVQLLESGAELVRPGSSVKISCKASGYAFSSYWMNWVKQRGGGGSHHHHHH", "notes": "Heterodimer secreted by M12 cells, used as concentrated culture supernatant; also called pMHCII-BMiMS; pMHCII-based BMiMS"}}, "key": {"[1]": {"target": "T1, human CD19 on Ramos cells (B-cell lymphoma) (human, UniProt P15391 20-556)", "T1 construct": "whole, on cells; also called hCD19", "T1 sequence (looked up)": "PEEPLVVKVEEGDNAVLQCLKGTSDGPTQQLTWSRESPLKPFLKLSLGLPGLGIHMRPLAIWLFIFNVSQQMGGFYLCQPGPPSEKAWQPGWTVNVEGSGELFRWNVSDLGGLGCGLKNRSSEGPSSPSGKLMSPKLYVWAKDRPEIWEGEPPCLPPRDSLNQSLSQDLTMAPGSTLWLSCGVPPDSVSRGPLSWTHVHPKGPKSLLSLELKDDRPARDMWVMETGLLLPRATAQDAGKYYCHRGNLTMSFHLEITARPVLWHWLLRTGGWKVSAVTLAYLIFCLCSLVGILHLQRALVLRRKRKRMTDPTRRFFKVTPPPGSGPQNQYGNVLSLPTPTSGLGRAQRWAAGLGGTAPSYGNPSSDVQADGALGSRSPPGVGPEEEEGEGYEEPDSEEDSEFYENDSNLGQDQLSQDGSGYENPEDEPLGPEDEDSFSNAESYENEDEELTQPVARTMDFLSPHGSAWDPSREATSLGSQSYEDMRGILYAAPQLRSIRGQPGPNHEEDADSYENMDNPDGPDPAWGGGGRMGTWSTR", "experiment": "flow cytometry of Ramos cells incubated with M12 supernatant, detected with PE anti-mouse I-A/I-E", "description": "Ramos cells were incubated with culture media (negative control) or supernatant from M12 cells expressing BMiMS, then stained with fluorophore conjugated antibodies against the indicated immune molecules and analyzed by flow cytometry.\nM12 cells were cultured to confluency (1-2×10⁶ cells/mL) in complete RPMI (5% FCS) and the supernatant was harvested for analysis as described above. Ramos cells were harvested, washed, and 1×10⁶ were incubated with media (negative control) or 0.250 mL of concentrated (50 mL down to 0.250 mL in Amicon Ultra 15 10 kDa (Millipore)) M12 cell culture supernatant at 4° C. for 1 hour. After washing, cells were stained with PE conjugated anti-mouse I-A/I-E (clone M5/14. 15.2, eBiosciences), PE conjugated anti-mCD80 (clone 16-10A1, BioLegend), anti-mCD86 (clone GL-1, BioLegend) or anti-mlCAM-1 (clone YN1/1.7.4, eBioscience) and analyzed by flow cytometry."}, "[2]": {"target": "T2, recombinant huCD19 (BioLegend) (human, UniProt P15391 20-291, limits assumed)", "T2 construct": "Bought reagent; also called rhuCD19", "T2 sequence (looked up)": "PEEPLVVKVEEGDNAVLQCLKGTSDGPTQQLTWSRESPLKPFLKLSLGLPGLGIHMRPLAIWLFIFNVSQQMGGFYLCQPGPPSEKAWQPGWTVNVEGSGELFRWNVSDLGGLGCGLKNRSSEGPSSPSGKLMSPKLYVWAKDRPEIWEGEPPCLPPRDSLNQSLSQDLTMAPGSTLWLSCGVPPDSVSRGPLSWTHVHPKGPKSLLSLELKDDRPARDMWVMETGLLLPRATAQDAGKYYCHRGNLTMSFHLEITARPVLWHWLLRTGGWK", "experiment": "plate coated with 4 ug/ml recombinant huCD19, BMiMS supernatant, washed; retention read through IL-2 of 5c.c7 T cells", "description": "An experiment was designed to determine whether BMiMS can bind huCD19 and stimulate CD4+ T cells. See FIG. 9A. pMHCII-based BMiMS were made with the moth cytochrome c […] peptide (MCC) tethered with a flexible linker to I-E^k (MCC:I-E^k) which is recognized by the 5c.c7 TCR. For a pilot experiment, the wells of a 96-well plate were coated with 4 μg/ml recombinant huCD19 (BioLegend). The wells were washed and then incubated with concentrated supernatant from cells expressing pMHCII-BMiMS, CD80-BMiMS, or both. Naive 5c.c7+CD4+ T cells from 5c.c7 TCR transgenic mice (RagKO) were then incubated for 18 hr in the wells prior to harvesting of the supernatant for measurement of IL-2 by ELISA. No IL-2 was produced by cells cultured in wells with huCD19 only or the huCD19+CD80 BMiMS. IL-2 was produced by T cells cultured in wells with huCD19+pMHCII-BMiMS, and higher levels of IL-2 were produced by T cells cultured in wells coated with huCD19+pMHCII-BMiMS+CD80-BMiMS."}}}
{"binder": "B1", "values": [{"measurement": "binding result", "setting": "[1]", "result": "binds"}, {"measurement": "binding result", "setting": "[2]", "result": "binds"}]}
